The target in assay [1] is recombinant human CD16a (human) (UniProt P08637).
The target of assay [2] is recombinant human CD32a (human) (UniProt P12318).
Assay [3] deals with human C1q (human) (UniProt P02745).
The target of assay [4] is recombinant human CD64 (human) (UniProt P12314).

Drawing on patent US20250230248A1, this text covers EC50 for 1 substance.

recombinant human CD16a (human), sequence (P08637 17-208 limits assumed): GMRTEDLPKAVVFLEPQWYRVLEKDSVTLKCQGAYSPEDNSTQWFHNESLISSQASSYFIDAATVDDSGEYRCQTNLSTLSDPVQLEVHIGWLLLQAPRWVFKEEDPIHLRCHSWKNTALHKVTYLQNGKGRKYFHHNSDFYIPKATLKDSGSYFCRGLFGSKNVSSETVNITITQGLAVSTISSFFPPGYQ
human C1q (human), sequence (P02745 23-245 limits assumed, chain 1 of 3): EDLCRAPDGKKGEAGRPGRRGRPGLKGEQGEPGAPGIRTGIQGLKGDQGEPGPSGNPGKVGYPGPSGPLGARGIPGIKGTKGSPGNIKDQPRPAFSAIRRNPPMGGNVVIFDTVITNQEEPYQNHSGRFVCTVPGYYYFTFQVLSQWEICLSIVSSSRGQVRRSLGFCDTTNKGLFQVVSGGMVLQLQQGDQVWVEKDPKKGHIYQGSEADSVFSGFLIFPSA
human C1q (human), sequence (P02746 28-253 limits assumed, chain 2 of 3, further chain): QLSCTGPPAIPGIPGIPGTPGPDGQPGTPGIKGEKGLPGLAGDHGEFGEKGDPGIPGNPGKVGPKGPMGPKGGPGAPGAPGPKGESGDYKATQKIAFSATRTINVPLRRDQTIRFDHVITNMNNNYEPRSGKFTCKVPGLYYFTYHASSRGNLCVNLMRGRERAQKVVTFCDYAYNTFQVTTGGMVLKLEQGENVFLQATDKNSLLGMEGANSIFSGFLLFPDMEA
human C1q (human), sequence (P02747 29-245 limits assumed, chain 3 of 3, further chain): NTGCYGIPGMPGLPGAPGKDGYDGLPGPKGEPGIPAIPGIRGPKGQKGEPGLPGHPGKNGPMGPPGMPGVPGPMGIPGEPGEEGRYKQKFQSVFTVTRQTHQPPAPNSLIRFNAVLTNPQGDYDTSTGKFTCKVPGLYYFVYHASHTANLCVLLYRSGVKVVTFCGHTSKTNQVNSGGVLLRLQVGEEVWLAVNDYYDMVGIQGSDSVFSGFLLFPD
recombinant human CD32a (human), sequence (P12318 34-217): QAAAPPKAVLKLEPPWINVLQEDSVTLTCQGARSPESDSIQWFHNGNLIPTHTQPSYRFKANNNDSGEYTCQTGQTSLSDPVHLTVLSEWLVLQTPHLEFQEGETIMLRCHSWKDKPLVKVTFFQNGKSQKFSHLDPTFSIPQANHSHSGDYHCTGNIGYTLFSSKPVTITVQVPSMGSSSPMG
recombinant human CD64 (human), sequence (P12314 16-288 limits assumed): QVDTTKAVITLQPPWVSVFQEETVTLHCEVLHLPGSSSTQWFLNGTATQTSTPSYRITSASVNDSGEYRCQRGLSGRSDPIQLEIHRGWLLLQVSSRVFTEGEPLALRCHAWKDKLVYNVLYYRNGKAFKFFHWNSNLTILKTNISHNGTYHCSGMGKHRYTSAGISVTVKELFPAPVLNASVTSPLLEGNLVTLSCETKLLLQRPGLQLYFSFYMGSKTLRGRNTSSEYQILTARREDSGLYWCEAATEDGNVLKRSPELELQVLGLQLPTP

A word on the EC50: it is the midpoint of the concentration-response curve. For isotype mAb with human IgG1 (antibody), the EC50 in assay [1] was 3.7 nM; in assay [2], 14 nM; in assay [3], 14.1 nM; in assay [4] it was 0.12 nM.
